Residue numbers refer to the chain shown, from its start.
B1: P056028-B-09 (protein)
chain: MGPTPTATAAGAAVAAASAAEQAAFRLVGHRNFVRFNPRSDRFQTLAFHHVELWCADAASAAGRFSFALGVPLAARSDLSTGNSAHASLLLRSGSLSLLFTAPYAHGADAATAALPSFSAAAARRFAADHGLAVRAVALRVADAEDAFRASVAAGARPAFGPVDLGRGFRLAEVELYGDVVLRYVSYPDGAAGEPFLPGFEGVASPGAADYGLSRFDHIVGNVPELAPAAAYMAGFTGFHEFAEFTTEDVGTTESGLNSMALANNSENVLLPLNEPVHGTKRRSQIQTFLDHHGGPGVQHIALASDDVLRTLREMRARSAMGGFEFLPPPLSDYYDDVRRCAGDVLTEAQINECQELGVMVDRDDEGVLLQIFTKPVGDRPTFFLEIIQRIGCVEKDEKGQEYQKGGCGGFGKGNFGQLFKSIEDYEKSLEAKRAAAAATAQGS
modifications: Zea mays variant form created by artificial means.
B2: P056028-D-03 (protein)
chain: B1 chain with L182M, S214N, D337G, V394M, R434Q
modifications: Zea mays variant form created by artificial means.
B3: P056028-A-03 (protein)
chain: B1 chain with A191G, Y211L, D337G, V394M, A432R
modifications: Zea mays variant form created by artificial means.

System: 4-hydroxyphenylpyruvate dioxygenase (HPPD)
Assay: Estimate of kcat from initial rate at saturating hydroxyphenylpyruvate without inhibitor (ON rate ratio assay)
Type: biochemical, Z. mays
Conditions: Megatable 3; shuffled variants
Summary of the method: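 Reactions used 60 or 120 nM HPPD and saturating 100 μM hydroxyphenylpyruvate without inhibitor. kcat was estimated from the initial rate at the known enzyme concentration.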

Molecule | kcat
B1 | 0.575 s⁻¹
B2 | 0.327 s⁻¹
B3 | 0.4 s⁻¹

Same assay, conditions: Table 7; combinatorial variants

Molecule | kcat
B1 | 0.575 s⁻¹
B2 | 0.327 s⁻¹
B3 | 0.4 s⁻¹

System: 4-hydroxyphenylpyruvate dioxygenase (HPPD)
Assay: ON rate ratio: HPPD reaction rate with vs without inhibitor in the 70 to 90 second interval
Type: biochemical, Z. mays
Conditions: Table 7; tembotrione; combinatorial variants
Summary of the method: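 Time courses of HPPD reactions, 60 or 120 nM enzyme with 100 μM HPP substrate, run with and without 4 μM inhibitor (e.g. mesotrione, tembotrione). Value is the rate with inhibitor over rate without, taken over 70–90 s; higher ratio reflects slower kON.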

Molecule | ON rate ratio
B1 | 0.648
B2 | 0.770
B3 | 0.748

Same assay, conditions: inhibitor diketonitrile form of isoxaflutole (DKN)

Molecule | Insensitivity, isoxaflutole (DKN), Rate ratio ON
B1 | 0.77
B2 | 0.76
B3 | 0.81

Same assay, conditions: inhibitor mesotrione

Molecule | Insensitivity, mesotrione, Rate ratio ON
B1 | 0.67
B2 | 0.68
B3 | 0.70

Same assay, conditions: inhibitor sulcotrione

Molecule | Insensitivity, sulcotrione, Rate ratio ON
B1 | 0.78
B2 | 0.76
B3 | 0.80

Same assay, conditions: inhibitor tembotrione

Molecule | Insensitivity, tembotrione, Rate ratio ON
B1 | 0.75
B2 | 0.77
B3 | 0.80

Same assay, conditions: inhibitor topramezone

Molecule | Insensitivity, topramezone, Rate ratio ON
B1 | 0.80
B2 | 0.80
B3 | 0.81

System: 4-hydroxyphenylpyruvate dioxygenase (HPPD)
Assay: Insensitivity parameter (ON × OFF) and trait fitness (ON × OFF × kcat/KM or × kcat)
Type: biochemical, Z. mays
Design: key to ON × OFF / Insensitivity, mesotrione, ON × OFF / Insensitivity, tembotrione, ON × OFF / Insensitivity, topramezone, ON × OFF / Insensitivity, sulcotrione, ON × OFF / Insensitivity, isoxaflutole (DKN), ON × OFF: insensitivity = ON rate ratio × OFF rate ratio (surrogate for KD)
Conditions: Megatable 3; shuffled variants
Summary of the method: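 Calculated, not measured directly: ON rate ratio × OFF rate ratio gives an insensitivity parameter serving as a KD surrogate.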

Molecule | ON × OFF | ON × OFF × kcat
B1 | 0.121 | 4.19
B2 | 0.349 | 6.83
B3 | 0.181 | 4.36

Same assay, conditions: Table 7; tembotrione; combinatorial variants

Molecule | ON × OFF | ON × OFF × kcat
B1 | 0.121 | 4.19
B2 | 0.349 | 6.83
B3 | 0.181 | 4.36

Same assay, conditions: inhibitor diketonitrile form of isoxaflutole (DKN)

Molecule | Insensitivity, isoxaflutole (DKN), ON × OFF | Insensitivity, isoxaflutole (DKN), Trait fitness
B1 | 0.25 | 7.93
B2 | 0.31 | 6.51
B3 | 0.34 | 7.25

Same assay, conditions: inhibitor mesotrione

Molecule | Insensitivity, mesotrione, ON × OFF | Insensitivity, mesotrione, Trait Fitness
B1 | 0.67 | 21.2
B2 | 0.68 | 14.5
B3 | 0.70 | 14.8

Same assay, conditions: inhibitor sulcotrione

Molecule | Insensitivity, sulcotrione, ON × OFF | Insensitivity, sulcotrione, Trait fitness
B1 | 0.68 | 21.6
B2 | 0.84 | 17.9
B3 | 0.75 | 15.7

Same assay, conditions: inhibitor tembotrione

Molecule | Insensitivity, tembotrione, ON × OFF | Insensitivity, tembotrione, Trait fitness
B1 | 0.26 | 8.28
B2 | 0.35 | 7.44
B3 | 0.32 | 6.81

Same assay, conditions: inhibitor topramezone

Molecule | Insensitivity, topramezone, ON × OFF | Insensitivity, topramezone, Trait Fitness
B1 | 0.38 | 12.12
B2 | 0.46 | 9.88
B3 | 0.38 | 7.97

System: 4-hydroxyphenylpyruvate dioxygenase (HPPD)
Assay: OFF rate ratio: release of inhibitor from pre-formed enzyme-inhibitor complex
Type: biochemical, Z. mays
Conditions: Table 7; tembotrione; combinatorial variants
Summary of the method: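 HPPD (7.2 μM) pre-incubated 1 h at RT with inhibitor (8 μM), then diluted into 25 mM Hepes pH 7, 2 mM ascorbate, 10 μM FeSO4, 100 μM HPP, 50 nM HGD; A320 followed 12 min. Ratio = steady-state rate with inhibitor over initial rate of inhibitor-free enzyme.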

Molecule | OFF rate ratio
B1 | 0.187
B2 | 0.453
B3 | 0.243

Same assay, conditions: inhibitor diketonitrile form of isoxaflutole (DKN)

Molecule | Insensitivity, isoxaflutole (DKN), Rate ratio OFF
B1 | 0.33
B2 | 0.40
B3 | 0.43

Same assay, conditions: inhibitor mesotrione

Molecule | Insensitivity, mesotrione, Rate ratio OFF
B1 | 1.00
B2 | 1.00
B3 | 1.00

Same assay, conditions: inhibitor sulcotrione

Molecule | Insensitivity, sulcotrione, Rate ratio OFF
B1 | 0.88
B2 | 1.11
B3 | 0.93

Same assay, conditions: inhibitor tembotrione

Molecule | Insensitivity, tembotrione, Rate ratio OFF
B1 | 0.35
B2 | 0.45
B3 | 0.40

Same assay, conditions: inhibitor topramezone

Molecule | Insensitivity, topramezone, Rate ratio OFF
B1 | 0.48
B2 | 0.58
B3 | 0.47
